This is an account of results in PMC8955854, “The Peptide Hormone CNMa Influences Egg Production in the Mosquito Aedes aegypti” (Insects, 2022).

Positions of bridges follow the written chain, without caps; N, C: chain ends. No end group written: not given here.

Test [1] has as its target AeCNMaR-1b (AAEL018316) (Aedes aegypti, UniProt A0A1S4G7J8). The test can be described thus: Receptor activation, aequorin luminescence in CHO-K1 aeq cells expressing AeCNMaR-1b. To be noted: CHO-K1 aeq cells, transient AeCNMaR-1b; luminescence over 10 s; 10 pM to 50 μM, quadruplicate; normalized to 50 µM AeCNMa; BSA assay media; read-out: EC50. The test is classed as cell-based. From the text: The CNMa peptide was synthesized and HPLC purified (>90% purity) by Royobiotechs (Shanghai, China) based on the published sequence of the AeCNMa peptide sequence. Both the amidated (YMSLCHFKLCNMa) and the non-amidated (YMSLCHFKLCNM) were produced with a disulfide bridge between cysteines 5 and 10. The complete coding sequence of the two putative Ae. aegypti CNMa receptors (VectorBase genes AAEL024199 and AAEL018316, which we henceforth refer to as AeCNMaR-1a and AeCNMaR-1b, respectively) were commercially synthesized (Integrated DNA Technologies) and subsequently subcloned into a pcDNA3.1+ mammalian expression vector [24]. A Chinese hamster ovary cell line stably expressing the calcium-dependent bioluminescent protein aequorin (CHO-K1 aeq) was grown in Dulbecco’s modified eagles medium: nutrient F12 (DMEM:F12) media containing 10% heat-inactivated fetal bovine serum (FBS; Wisent, St. Bruno, QC, Canada), 200 μg/mL geneticin, and an antimycotic-antibiotic mixture as described previously. […]
Other Ae. aegypti peptides used in this study included “capability” (CAPA)-1 (GPTVGLFAFPRV-NH2), CAPA-2 (pQGLVPFPRV-NH2), AedaeCAPA-pyrokinin (PK) 1 (AGNSGANSGMWFGPRL-NH2), adipokinetic/corazonin-like peptide (ACP; pQVTFSRDWNA-NH2), adipokinetic hormone (AKH) (pQLTFTPSW-NH2), and corazonin (CRZ; pQTFQYSRGWTN-NH2). […] Single concentrations of the various peptides were loaded into individual wells of white 96-well luminescence plates (Greiner Bio-One, Frickenhausen, Germany) with each peptide concentration tested in quadruplicate. CHO-K1 aeq cells expressing either of the two AeCNMa receptors or mCherry were prepared for the functional assay, as described above, and injected into each well of the 96-well luminescence plates by an automated injector unit integrated with the Synergy 2 Multi-Mode Microplate Reader (BioTek, Winooski, VT, USA). The kinetic luminescent response was measured for 10 s immediately following the application of the cells into the wells containing the different peptide treatments or the negative (i.e., BSA media alone) or positive (i.e., 50 μM ATP) controls as described previously. Data was assembled in Microsoft Excel and then analyzed in GraphPad Prism 7.02 (GraphPad Software, San Diego, CA, USA) where the dose–response curves from multiple biological replicates were used to determine the half maximal effective concentrations (EC50).

The target of test [2] is AeCNMaR-1a (AAEL024199) (Aedes aegypti, UniProt A0A6I8U3V2). The test can be described thus: Receptor activation, aequorin luminescence in CHO-K1 aeq cells expressing AeCNMaR-1a. The note with it: CHO-K1 aeq cells, transient AeCNMaR-1a; luminescence over 10 s; 10 pM to 50 μM, quadruplicate; normalized to 50 µM AeCNMa; BSA assay media; read-out: EC50. The test is classed as cell-based. From the text:
The CNMa peptide was synthesized and HPLC purified (>90% purity) by Royobiotechs (Shanghai, China) based on the published sequence of the AeCNMa peptide sequence. Both the amidated (YMSLCHFKLCNMa) and the non-amidated (YMSLCHFKLCNM) were produced with a disulfide bridge between cysteines 5 and 10. The complete coding sequence of the two putative Ae. aegypti CNMa receptors (VectorBase genes AAEL024199 and AAEL018316, which we henceforth refer to as AeCNMaR-1a and AeCNMaR-1b, respectively) were commercially synthesized (Integrated DNA Technologies) and subsequently subcloned into a pcDNA3.1+ mammalian expression vector [24]. A Chinese hamster ovary cell line stably expressing the calcium-dependent bioluminescent protein aequorin (CHO-K1 aeq) was grown in Dulbecco’s modified eagles medium: nutrient F12 (DMEM:F12) media containing 10% heat-inactivated fetal bovine serum (FBS; Wisent, St. Bruno, QC, Canada), 200 μg/mL geneticin, and an antimycotic-antibiotic mixture as described previously. When cells reached 80–90% confluency, they were transfected using Lipofectamine 3000 transfection reagent following manufacturer recommendations (Life Technologies, Burlington, ON, Canada) to transiently express a mammalian construct in pcDNA3.1+ containing either of the two candidate CNMa receptors or mCherry (pcDNA3.1+ mCherry was a gift from Scott Gradia, Addgene plasmid #30125), the latter of which served as a negative control for the receptor functional assay. After 48 h following transfection, CHO-K1 aeq cells were harvested by dislodging from culture flasks using Dulbecco’s PBS containing EDTA and subsequently resuspended in receptor assay media.
Other Ae. aegypti peptides used in this study included “capability” (CAPA)-1 (GPTVGLFAFPRV-NH2), CAPA-2 (pQGLVPFPRV-NH2), AedaeCAPA-pyrokinin (PK) 1 (AGNSGANSGMWFGPRL-NH2), adipokinetic/corazonin-like peptide (ACP; pQVTFSRDWNA-NH2), adipokinetic hormone (AKH) (pQLTFTPSW-NH2), and corazonin (CRZ; pQTFQYSRGWTN-NH2). Serial dilutions of the peptide stocks were prepared in bovine serum albumin (BSA) assay media (DMEM:F12 media + 0.1% BSA + 1× antibiotic-antimycotic) to test concentrations ranging from 10 pM to 50 μM. Single concentrations of the various peptides were loaded into individual wells of white 96-well luminescence plates (Greiner Bio-One, Frickenhausen, Germany) with each peptide concentration tested in quadruplicate. CHO-K1 aeq cells expressing either of the two AeCNMa receptors or mCherry were prepared for the functional assay, as described above, and injected into each well of the 96-well luminescence plates by an automated injector unit integrated with the Synergy 2 Multi-Mode Microplate Reader (BioTek, Winooski, VT, USA). The kinetic luminescent response was measured for 10 s immediately following the application of the cells into the wells containing the different peptide treatments or the negative (i.e., BSA media alone) or positive (i.e., 50 μM ATP) controls as described previously. Data was assembled in Microsoft Excel and then analyzed in GraphPad Prism 7.02 (GraphPad Software, San Diego, CA, USA) where the dose–response curves from multiple biological replicates were used to determine the half maximal effective concentrations (EC50).

Sequence of AeCNMaR-1b (AAEL018316) (A0A1S4G7J8 entry or part of it): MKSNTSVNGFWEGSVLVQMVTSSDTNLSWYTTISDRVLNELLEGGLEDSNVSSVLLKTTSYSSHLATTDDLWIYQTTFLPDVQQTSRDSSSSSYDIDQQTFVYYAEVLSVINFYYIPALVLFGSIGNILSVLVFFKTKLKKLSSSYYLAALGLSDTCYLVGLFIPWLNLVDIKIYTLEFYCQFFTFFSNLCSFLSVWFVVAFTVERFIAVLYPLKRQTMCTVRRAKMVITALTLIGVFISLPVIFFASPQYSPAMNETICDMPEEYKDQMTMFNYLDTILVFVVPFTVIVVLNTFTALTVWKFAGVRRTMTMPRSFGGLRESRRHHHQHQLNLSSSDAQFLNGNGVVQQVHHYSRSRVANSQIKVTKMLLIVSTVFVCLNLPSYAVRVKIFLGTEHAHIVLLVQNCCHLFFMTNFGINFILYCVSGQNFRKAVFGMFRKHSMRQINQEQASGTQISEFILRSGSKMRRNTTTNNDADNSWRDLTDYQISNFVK
Sequence of AeCNMaR-1a (AAEL024199) (A0A6I8U3V2 entry or part of it): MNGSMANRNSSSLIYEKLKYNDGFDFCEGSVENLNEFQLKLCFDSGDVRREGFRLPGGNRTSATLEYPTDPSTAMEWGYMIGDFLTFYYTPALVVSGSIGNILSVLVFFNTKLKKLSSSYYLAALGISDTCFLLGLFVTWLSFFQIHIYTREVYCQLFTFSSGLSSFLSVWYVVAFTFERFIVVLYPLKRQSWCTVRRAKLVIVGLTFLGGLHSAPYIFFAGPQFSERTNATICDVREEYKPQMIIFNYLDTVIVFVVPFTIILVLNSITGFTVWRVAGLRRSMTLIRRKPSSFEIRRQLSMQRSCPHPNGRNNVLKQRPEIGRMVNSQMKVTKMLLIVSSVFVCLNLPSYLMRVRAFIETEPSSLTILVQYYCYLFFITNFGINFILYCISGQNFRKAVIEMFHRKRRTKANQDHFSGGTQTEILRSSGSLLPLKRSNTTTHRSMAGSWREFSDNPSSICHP

As for “YMSLCHFKLCNMa (disulfide) (YMSLCHFKLCNM-NH2; disulfide 5-10; N-terminus assumed; SMILES CSCC[C@H](NC(=O)[C@H](CC(N)=O)NC(=O)[C@@H]1CSSC[C@H](NC(=O)[C@H](CC(C)C)NC(=O)[C@H](CO)NC(=O)[C@H](CCSC)NC(=O)[C@@H](N)Cc2ccc(O)cc2)C(=O)N[C@@H](Cc2c[nH]cn2)C(=O)N[C@@H](Cc2ccccc2)C(=O)N[C@@H](CCCCN)C(=O)N[C@@H](CC(C)C)C(=O)N1)C(N)=O) [AeCNMa, Ae. aegypti CNMa peptide, amidated, HPLC purified (>90% purity)]”, the EC50 was 51.8 nM in test [1] and 5.17 nM in test [2].
